Tested on: Escherichia coli TOP10
Test: shrunken log2 fold change of peptide-encoding DNA abundance (4.5 h post-induction vs induction); higher = less antimicrobial activity (less host growth inhibition)
Conditions: time post-induction: 4.5 h; library: site-saturation at positions 5, 18, 19, 20
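Further: peptides expressed intracellularly from a pBAD plasmid library in pooled LB shake-flask culture, induced with 0.3% L-arabinose, DNA abundance read by NGS, three biological replicates, DESeq2 with apeglm shrinkage.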

Row | Sequence | shrunken log2 fold change
1 | RRIRQRPPRLPRPRPRPVYQPRP | -0.022
2 | RRIRKRPPRLPRPRPRPHFRPRP | -0.138
3 | RRIRWRPPRLPRPRPRPTALPRP | 0.257
4 | RRIRARPPRLPRPRPRPQNTPRP | -0.286
5 | RRIRARPPRLPRPRPRPMLVPRP | 0.291
6 | RRIRVRPPRLPRPRPRPPLFPRP | 0.256
7 | RRIRGRPPRLPRPRPRPAYNPRP | -0.34
8 | RRIRTRPPRLPRPRPRPMKFPRP | -0.116
9 | RRIRIRPPRLPRPRPRPPLWPRP | 0.504
10 | RRIRERPPRLPRPRPRPLIQPRP | -0.28
11 | RRIRSRPPRLPRPRPRPIAMPRP | -0.127
12 | RRIRIRPPRLPRPRPRPSPHPRP | -1.03
13 | RRIRPRPPRLPRPRPRPFNLPRP | -0.771
14 | RRIRFRPPRLPRPRPRPDYGPRP | -0.238
15 | RRIRLRPPRLPRPRPRPMWAPRP | 0.0661
16 | RRIRTRPPRLPRPRPRPAEDPRP | 0.17
17 | RRIRWRPPRLPRPRPRPCTWPRP | -0.217
18 | RRIRPRPPRLPRPRPRPYRSPRP | -0.295
19 | RRIRTRPPRLPRPRPRPCHFPRP | -0.387
20 | RRIRIRPPRLPRPRPRPCVHPRP | -1.13
21 | RRIRVRPPRLPRPRPRPLKHPRP | -0.486
22 | RRIRGRPPRLPRPRPRPYITPRP | -0.302
23 | RRIRFRPPRLPRPRPRPAMLPRP | 0.0665
24 | RRIRARPPRLPRPRPRPWPIPRP | 0.179
25 | RRIRDRPPRLPRPRPRPSMGPRP | -0.11

Row | Sequence | shrunken log2 fold change
26 | RRIRVRPPRLPRPRPRPDVLPRP | 0.00338
27 | RRIRMRPPRLPRPRPRPTFIPRP | -0.027
28 | RRIRHRPPRLPRPRPRPSITPRP | -0.569
29 | RRIRRRPPRLPRPRPRPALFPRP | 0.128
30 | RRIRKRPPRLPRPRPRPPYGPRP | 0.156
31 | RRIRCRPPRLPRPRPRPMMKPRP | -0.231
32 | RRIRDRPPRLPRPRPRPVDGPRP | 0.0169
33 | RRIRTRPPRLPRPRPRPSWNPRP | -0.34
34 | RRIRIRPPRLPRPRPRPRWEPRP | 0.0225
35 | RRIRIRPPRLPRPRPRPWHVPRP | -0.0239
36 | RRIRNRPPRLPRPRPRPMMCPRP | -0.0344
37 | RRIRDRPPRLPRPRPRPRRYPRP | 0.247
38 | RRIRMRPPRLPRPRPRPMHDPRP | 0.192
39 | RRIRVRPPRLPRPRPRPCAWPRP | 0.27
40 | RRIRHRPPRLPRPRPRPDTKPRP | 0.162
41 | RRIRARPPRLPRPRPRPWYYPRP | -0.628
42 | RRIRGRPPRLPRPRPRPTHRPRP | 0.454
43 | RRIRSRPPRLPRPRPRPHAQPRP | 0.0587
44 | RRIRYRPPRLPRPRPRPMQYPRP | -0.131
45 | RRIRGRPPRLPRPRPRPWWDPRP | -0.145
46 | RRIRMRPPRLPRPRPRPRTLPRP | 0.28
47 | RRIRYRPPRLPRPRPRPTTDPRP | -0.775
48 | RRIRYRPPRLPRPRPRPVMVPRP | -0.139
49 | RRIRMRPPRLPRPRPRPRMTPRP | 1.84
50 | RRIRSRPPRLPRPRPRPCYFPRP | -0.387

Row | Sequence | shrunken log2 fold change
51 | RRIRARPPRLPRPRPRPYSSPRP | -0.28
52 | RRIRERPPRLPRPRPRPKHCPRP | 0.0411
53 | RRIRPRPPRLPRPRPRPDCCPRP | -0.0125
54 | RRIRFRPPRLPRPRPRPYYRPRP | 0.0478
55 | RRIRKRPPRLPRPRPRPGHWPRP | 0.2
56 | RRIRTRPPRLPRPRPRPRPCPRP | -0.0153
57 | RRIRRRPPRLPRPRPRPPRFPRP | 1.17
58 | RRIRCRPPRLPRPRPRPQNWPRP | -0.0693
59 | RRIRNRPPRLPRPRPRPEEIPRP | -0.000921
60 | RRIRCRPPRLPRPRPRPGWLPRP | 0.801
61 | RRIRWRPPRLPRPRPRPRCFPRP | 0.398
62 | RRIRNRPPRLPRPRPRPHSTPRP | -0.412
63 | RRIRPRPPRLPRPRPRPTMPPRP | -0.144
64 | RRIRSRPPRLPRPRPRPYVAPRP | -0.402
65 | RRIRRRPPRLPRPRPRPEESPRP | 1.5
66 | RRIRFRPPRLPRPRPRPMMCPRP | -0.139
67 | RRIRDRPPRLPRPRPRPQWPPRP | -0.0971
68 | RRIRHRPPRLPRPRPRPALKPRP | -0.322
69 | RRIRDRPPRLPRPRPRPIVAPRP | -0.0201
70 | RRIRWRPPRLPRPRPRPNCGPRP | 0.192
71 | RRIRYRPPRLPRPRPRPSKFPRP | -0.299
72 | RRIRERPPRLPRPRPRPFYDPRP | -0.106
73 | RRIRPRPPRLPRPRPRPSCMPRP | -0.279
74 | RRIRKRPPRLPRPRPRPHHLPRP | -0.232
75 | RRIRRRPPRLPRPRPRPKHWPRP | 0.334

Row | Sequence | shrunken log2 fold change
76 | RRIRERPPRLPRPRPRPRHGPRP | -0.467
77 | RRIRERPPRLPRPRPRPGPTPRP | 0.215
78 | RRIRQRPPRLPRPRPRPTCHPRP | -0.552
79 | RRIRDRPPRLPRPRPRPWGWPRP | 0.226
80 | RRIRYRPPRLPRPRPRPRRWPRP | 0.309
81 | RRIRGRPPRLPRPRPRPCQMPRP | 0.215
82 | RRIRSRPPRLPRPRPRPCWPPRP | 0.42
83 | RRIRERPPRLPRPRPRPSHKPRP | -0.437
84 | RRIRDRPPRLPRPRPRPSLLPRP | 0.05
85 | RRIRQRPPRLPRPRPRPTSMPRP | -0.049
86 | RRIRMRPPRLPRPRPRPQAKPRP | 0.0296
87 | RRIRERPPRLPRPRPRPGNKPRP | -0.00852
88 | RRIRKRPPRLPRPRPRPGKLPRP | -0.208
89 | RRIRDRPPRLPRPRPRPELTPRP | 0.167
90 | RRIRRRPPRLPRPRPRPEGTPRP | 0.28
91 | RRIRERPPRLPRPRPRPKQWPRP | 0.0081
92 | RRIRCRPPRLPRPRPRPLLEPRP | 0.234
93 | RRIRNRPPRLPRPRPRPEYIPRP | -0.0947
94 | RRIRWRPPRLPRPRPRPKVYPRP | -0.0533
95 | RRIRNRPPRLPRPRPRPYGEPRP | -0.16
96 | RRIRTRPPRLPRPRPRPWCEPRP | 0.0211
97 | RRIRTRPPRLPRPRPRPYPVPRP | 0.154
98 | RRIRCRPPRLPRPRPRPYGTPRP | 0.016
99 | RRIRIRPPRLPRPRPRPHLMPRP | -1.31
100 | RRIRLRPPRLPRPRPRPALFPRP | 0.488

Row | Sequence | shrunken log2 fold change
101 | RRIRWRPPRLPRPRPRPWYDPRP | -0.31
102 | RRIRARPPRLPRPRPRPYSYPRP | -0.292
103 | RRIRHRPPRLPRPRPRPLPVPRP | 0.125
104 | RRIRHRPPRLPRPRPRPSHRPRP | -0.548
105 | RRIRSRPPRLPRPRPRPSMEPRP | -0.0673
106 | RRIRYRPPRLPRPRPRPHCRPRP | -0.372
107 | RRIRERPPRLPRPRPRPFCYPRP | -0.927
108 | RRIRWRPPRLPRPRPRPYFMPRP | -0.834
109 | RRIRRRPPRLPRPRPRPGFIPRP | -0.00928
110 | RRIRGRPPRLPRPRPRPHGWPRP | 0.161
111 | RRIRQRPPRLPRPRPRPRWYPRP | -0.172
112 | RRIRARPPRLPRPRPRPRLNPRP | 0.316
113 | RRIRDRPPRLPRPRPRPDMRPRP | 0.0382
114 | RRIRPRPPRLPRPRPRPKVKPRP | -0.236
115 | RRIRVRPPRLPRPRPRPEVIPRP | -0.595
116 | RRIRIRPPRLPRPRPRPYSKPRP | -1.2
117 | RRIRDRPPRLPRPRPRPLRLPRP | 0.0919
118 | RRIRIRPPRLPRPRPRPKQYPRP | -0.474
119 | RRIRWRPPRLPRPRPRPLGTPRP | 0.0928
120 | RRIRWRPPRLPRPRPRPREGPRP | 1.28
121 | RRIRYRPPRLPRPRPRPSYIPRP | -1.4
122 | RRIRYRPPRLPRPRPRPCLSPRP | -1.24
123 | RRIRQRPPRLPRPRPRPGGAPRP | 0.485
124 | RRIRNRPPRLPRPRPRPYLWPRP | -0.23
125 | RRIRSRPPRLPRPRPRPYQMPRP | -0.557

Source: the supplement of paper PMC9112550, “Optimization of the antimicrobial peptide Bac7 by deep mutational scanning” (BMC Biology, 2022)
